Columns and labels:
Conditions in all cases: qPCR; 3 mM MgCl2, 37 C
[1] = system: T1, MG153-32 RT (uncultivated organism (metagenomic))
T1 sequence: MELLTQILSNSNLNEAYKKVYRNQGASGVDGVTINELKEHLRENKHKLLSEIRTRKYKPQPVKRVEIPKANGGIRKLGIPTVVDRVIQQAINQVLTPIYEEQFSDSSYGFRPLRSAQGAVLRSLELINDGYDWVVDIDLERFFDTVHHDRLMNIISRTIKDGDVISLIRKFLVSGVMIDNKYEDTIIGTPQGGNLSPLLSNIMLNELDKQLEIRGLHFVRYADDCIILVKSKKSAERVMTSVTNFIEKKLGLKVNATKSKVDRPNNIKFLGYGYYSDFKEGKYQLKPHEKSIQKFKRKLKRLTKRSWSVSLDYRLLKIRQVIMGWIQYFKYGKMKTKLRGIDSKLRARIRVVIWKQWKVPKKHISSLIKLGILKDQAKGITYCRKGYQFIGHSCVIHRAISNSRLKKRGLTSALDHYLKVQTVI

[2] = system: T2, MG153-8 RT (uncultivated organism (metagenomic))
T2 sequence: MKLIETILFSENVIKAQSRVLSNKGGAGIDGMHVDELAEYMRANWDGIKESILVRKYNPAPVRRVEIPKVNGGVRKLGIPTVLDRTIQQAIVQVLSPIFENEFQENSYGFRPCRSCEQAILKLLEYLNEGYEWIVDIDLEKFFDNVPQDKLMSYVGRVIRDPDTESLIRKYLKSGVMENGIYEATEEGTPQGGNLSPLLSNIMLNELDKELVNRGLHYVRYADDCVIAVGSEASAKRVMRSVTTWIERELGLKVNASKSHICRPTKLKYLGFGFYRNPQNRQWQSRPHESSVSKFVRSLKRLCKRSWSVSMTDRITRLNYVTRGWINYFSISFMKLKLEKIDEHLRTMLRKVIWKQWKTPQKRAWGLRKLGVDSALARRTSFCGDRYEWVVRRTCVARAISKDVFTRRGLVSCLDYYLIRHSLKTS

[3] = system: T3, MG153-14 RT (uncultivated organism (metagenomic))
T3 sequence: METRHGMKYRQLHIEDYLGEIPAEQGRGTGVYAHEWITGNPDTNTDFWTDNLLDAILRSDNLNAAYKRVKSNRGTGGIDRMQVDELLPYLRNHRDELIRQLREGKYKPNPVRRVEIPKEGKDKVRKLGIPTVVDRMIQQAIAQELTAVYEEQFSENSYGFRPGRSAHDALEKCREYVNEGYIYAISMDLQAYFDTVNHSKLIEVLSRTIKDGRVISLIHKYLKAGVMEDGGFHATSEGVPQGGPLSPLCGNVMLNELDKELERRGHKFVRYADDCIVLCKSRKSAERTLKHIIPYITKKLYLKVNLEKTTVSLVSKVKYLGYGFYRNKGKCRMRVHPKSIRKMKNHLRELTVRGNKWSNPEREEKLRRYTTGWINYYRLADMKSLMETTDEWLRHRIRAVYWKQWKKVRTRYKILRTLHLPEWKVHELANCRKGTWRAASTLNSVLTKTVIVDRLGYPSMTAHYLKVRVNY

[4] = system: T4, MG153-50 RT (uncultivated organism (metagenomic))
T4 sequence: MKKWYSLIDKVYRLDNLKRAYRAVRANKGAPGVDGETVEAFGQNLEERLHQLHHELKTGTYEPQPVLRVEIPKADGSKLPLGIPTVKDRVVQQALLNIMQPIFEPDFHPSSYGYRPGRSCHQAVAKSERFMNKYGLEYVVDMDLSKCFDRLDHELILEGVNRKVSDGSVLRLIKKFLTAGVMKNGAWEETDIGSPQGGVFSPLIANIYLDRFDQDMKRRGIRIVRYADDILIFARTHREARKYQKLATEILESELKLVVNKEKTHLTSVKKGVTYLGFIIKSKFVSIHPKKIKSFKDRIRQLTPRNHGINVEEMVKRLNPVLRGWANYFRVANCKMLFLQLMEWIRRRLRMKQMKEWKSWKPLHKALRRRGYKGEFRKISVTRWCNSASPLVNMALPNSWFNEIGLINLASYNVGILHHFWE

Measured: activity (fold over background)

200 nt RNA template annealed to DNA primer
> 10: all assays above

— patent publication US20240287484
